From paper PMC314469, “Protein Interaction Networks by Proteome Peptide Scanning” (PLoS Biology, 2004)

T1: Boi2 SH3 (BOI2_YEAST), P39969
T1 chain: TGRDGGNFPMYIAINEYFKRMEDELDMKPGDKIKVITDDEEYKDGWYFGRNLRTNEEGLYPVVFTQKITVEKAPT

T2: Yhr016c SH3 (YSC84_YEAST), P32793
T2 chain: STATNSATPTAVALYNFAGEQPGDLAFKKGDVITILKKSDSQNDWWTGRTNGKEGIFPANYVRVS

T3: Rvs167 SH3 (RV167_YEAST), P39743
T3 chain: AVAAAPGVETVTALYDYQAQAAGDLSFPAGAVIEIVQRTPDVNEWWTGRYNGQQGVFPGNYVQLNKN

T4: Yfr024 SH3 (LSB3_YEAST), P43603
T4 chain: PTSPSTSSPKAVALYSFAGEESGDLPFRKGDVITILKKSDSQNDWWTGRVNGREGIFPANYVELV

T5: Boi1 SH3 (BOI1_YEAST), P38041
T5 chain: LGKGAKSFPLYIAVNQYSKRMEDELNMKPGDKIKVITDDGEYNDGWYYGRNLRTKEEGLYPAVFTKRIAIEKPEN


Experiments:
Test in all cases: SPOT array
[1] = biological target: T1, Boi2 SH3 (BOI2_YEAST), P39969
[2] = biological target: T2, Yhr016c SH3 (YSC84_YEAST), P32793
[3] = biological target: T3, Rvs167 SH3 (RV167_YEAST), P39743
[4] = biological target: T4, Yfr024 SH3 (LSB3_YEAST), P43603
[5] = biological target: T5, Boi1 SH3 (BOI1_YEAST), P38041

Binder | normalised SPOT signal, Boehringer light units (BLU); mean over the file's lines of this peptide [1] | normalised SPOT signal, Boehringer light units (BLU); mean over the file's lines of this peptide [2] | normalised SPOT signal, Boehringer light units (BLU); mean over the file's lines of this peptide [3] | normalised SPOT signal, Boehringer light units (BLU); mean over the file's lines of this peptide [4] | normalised SPOT signal, Boehringer light units (BLU); mean over the file's lines of this peptide [5]
LEQPAEPSKLAKKL [YMR108W 66-79] | 37.3 | 96.5 | 8.3 | 19.3 | 86.5
LFGPSFPNKTTVEI [YNL197C 178-191] | 30.3 | 174 | 19.9 | 88.8 | 91.9
LGAPFSPRRKDKLV [YJL172W 363-376] | 25.3 | 250 | 59.5 | 1510 | 140
LGEPFDPNKHEATF [YOR232W 175-188] | 73.9 | 161 | 10.7 | 68.3 | 98.8
LHDPLVPIKSYGLT [YMR185W 739-752] | 13.6 | 227 | 47.9 | 126 | 0
LHGPFKPVKSSNGE [YER134C 25-38] | 77.4 | 150 | 107 | 288 | 103
LHVPRNPSKSRRGS [YLR310C 161-174] | 234 | 211 | 129 | 1260 | 153
LHYPYGPARNPSYI [YJR126C 313-326] | 31.8 | 142 | 56.4 | 277 | 146
LIDPSTPDKAAKKD [YGR083C 353-366] | 19.8 | 302 | 28.2 | 0 | 24.8
LIMPIYPYRLVSTI [YIL173W 525-538] | 560 | 973 | 189 | 3060 | 95.2
LIPPGFPTKNYPPG [YCL010C 185-198] | 40.7 | 323 | 0 | 85.1 | 40.1
LIPPLHPLKKQHPK [YIL089W 44-57] | 17.8 | 366 | 35.3 | 1420 | 10.8
LIQPTAPIRDPTRF [YIR029W 48-61] | 68.8 | 286 | 75.5 | 541 | 30300
LKRPILPSKNMDHT [YOR191W 344-357] | 45.2 | 251 | 141 | 6130 | 133
LKYPYFPTKMSYLQ [YNL059C 229-242] | 99 | 184 | 39.3 | 296 | 91.9
LLAPNSPLKNTKSV [YOR124C 391-404] | 10.2 | 53.5 | 26.4 | 94.9 | 57.9
LLKPETPSKRLVIR [YGL216W 249-262] | 13.3 | 59.7 | 25.7 | 1480 | 229
